Results: paper PMC5740215, “Functional characterization of a novel somatic oncogenic mutation of PIK3CB” (Signal Transduction and Targeted Therapy, 2017)
Substitutions are numbered along the chain they refer to. In names and notes the source's numbering stands.

B1: p110β (Homo sapiens) (protein)
chain: MCFSFIMPPAMADILDIWAVDSQIASDGSIPVDFLLPTGIYIQLEVPREATISYIKQMLWKQVHNYPMFNLLMDIDSYMFACVNQTAVYEELEDETRRLCDVRPFLPVLKLVTRSCDPGEKLDSKIGVLIGKGLHEFDSLKDPEVNEFRRKMRKFSEEKILSLVGLSWMDWLKQTYPPEHEPSIPENLEDKLYGGKLIVAVHFENCQDVFSFQVSPNMNPIKVNELAIQKRLTIHGKEDEVSPYDYVLQVSGRVEYVFGDHPLIQFQYIRNCVMNRALPHFILVECCKIKKMYEQEMIAIEAAINRNSSNLPLPLPPKKTRIISHVWENNNPFQIVLVKGNKLNTEETVKVHVRAGLFHGTELLCKTIVSSEVSGKNDHIWNEPLEFDINICDLPRMARLCFAVYAVLDKVKTKKSTKTINPSKYQTIRKAGKVHYPVAWVNTMVFDFKGQLRTGDIILHSWSSFPDELEEMLNPMGTVQTNPYTENATALHVKFPENKKQPYYYPPFDKIIEKAAEIASSDSANVSSRGGKKFLPVLKEILDRDPLSQLCENEMDLIWTLRQDCREIFPQSLPKLLLSIKWNKLEDVAQLQALLQIWPKLPPREALELLDFNYPDQYVREYAVGCLRQMSDEELSQYLLQLVQVLKYEPFLDCALSRFLLERALGNRRIGQFLFWHLRSEVHIPAVSVQFGVILEAYCRGSVGHMKVLSKQVEALNKLKTLNSLIKLNAVKLNRAKGKEAMHTCLKQSAYREALSDLQSPLNPCVILSELYVEKCKYMDSKMKPLWLVYNNKVFGEDSVGVIFKNGDDLRQDMLTLQMLRLMDLLWKEAGLDLRMLPYGCLATGDRSGLIEVVSTSETIADIQLNSSNVAAAAAFNKDALLNWLKEYNSGDDLDRAIEEFTLSCAGYCVASYVLGIGDRHSDNIMVKKTGQLFHIDFGHILGNFKSKFGIKRERVPFILTYDFIHVIQQGKTGNTEKFGRFRQCCEDAYLILRRHGNLFITLFALMLTAGLPELTSVKDIQYLKDSLALGKSEEEALKQFKQKFDEALRESWTTKVNWMAHTVRKDYRS
notes: GST-His6-p110β+myc-p85α; with p85α (PIK3R1)
B2: p110β^E1051K (Homo sapiens; E1051K) (protein)
chain: B1 chain with E1051K
notes: as for B1

Substrate: Nc1ncnc2c1ncn2[C@@H]1O[C@H](COP(=O)(O)OP(=O)(O)OP(=O)(O)O)[C@@H](O)[C@H]1O
Assay: Km [ATP] by ADP-Glo lipid kinase assay with PIP2:PS substrate
Assay type: biochemical, Homo sapiens
Settings: MgCl2

| Protein | Km [µM] | Vmax [µmol/min/mg] |
| --- | --- | --- |
| B1 | 507.5 ± 66.3 | 1.13 |
| B2 | 314.3 ± 36.8 | 1.4 |
